The labels stand for the following.
T1: biotinylated IL-2 receptor beta gamma heterodimer Fc (IL-2RBG; Acro ILG-H5254) (UniProt P14784 27-239; P31785 23-262, biotinylated)
T1 construct: bought heterodimer
T1 sequence (looked up) 1: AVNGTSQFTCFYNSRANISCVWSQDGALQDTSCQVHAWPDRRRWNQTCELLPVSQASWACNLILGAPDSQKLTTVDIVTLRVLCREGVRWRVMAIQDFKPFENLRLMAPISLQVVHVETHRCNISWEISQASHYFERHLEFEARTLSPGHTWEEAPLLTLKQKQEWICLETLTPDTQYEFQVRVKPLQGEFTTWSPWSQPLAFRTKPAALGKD
T1 sequence (looked up) 2: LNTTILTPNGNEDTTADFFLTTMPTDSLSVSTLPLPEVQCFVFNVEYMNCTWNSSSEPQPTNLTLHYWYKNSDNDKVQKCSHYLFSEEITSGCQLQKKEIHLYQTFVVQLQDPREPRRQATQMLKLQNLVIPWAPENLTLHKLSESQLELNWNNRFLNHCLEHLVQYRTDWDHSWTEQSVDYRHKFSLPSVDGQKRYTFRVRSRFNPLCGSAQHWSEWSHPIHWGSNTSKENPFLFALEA

B1: AF003657 (other)
heavy: APASSSTKKTQLQLEHLLLDLQMILNGINNYKNPKLTRMLTAKFAMPKKATELKHLQCLEEELKPLEEVLNGAQSKNFHLRPRDLISNINVIVLELKGSETTFMCEYADETATIVEFLNRWITFAQSIISTLTGGGGSGGGGSGGGGSGGGGSQVQLVQSGAEVKKPGASVKVSCKASGDTFTRYYVHWVRQAPGQGLEWMGIINPSGGYASYAQKFQGRVTMTRDTSTSTVYMELSSLRSEDTAVYYCAAGLFIWGQGTLVTVSSAKTTAPSVYPLAPVCGDTTGSSVTLGCLVKGYFPEPVTLTWNSGSLSSGVHTFPAVLQSDLYTLSSSVTVTSSTWPSQSITCNVAHPASSTKVDKKIEPRGPTIKPCPPCKCPAPNAAGGPSVFIFPPKIKDVLMISLSPIVTCVVVDVSEDDPDVQISWFVNNVEVHTAQTQTHREDYNSTLRVVSALPIQHQDWMSGKEFKCKVNNKDLGAPIERTISKPKGSVRAPQVYVLPPPEEEMTKKQVTLTCMVTDFMPEDIYVEWTNNGKTELNYKNTEPVLDSDGSYFMYSKLRVEKKNWVERNSYSCSVVHEGLHNHHTTKSFSRTPGK
light: DIQMTQSPSSLSASVGDRVTITCRASQSIGRWLAWYQQKPGKAPKLLIYSASNLETGVPSRFSGSGSGTDFTLTISSLQPEDFATYYCQQYESFPVTFGPGTKVDIKRADAAPTVSIFPPSSEQLTSGGASVVCFLNNFYPKDINVKWKIDGSERQNGVLNSWTDQDSKDSTYSMSSTLTLTKDEYERHNSYTCEATHKTSTSPIVKSFNRNEC
notes: also called AF3657
B2: AF003947 (other)
heavy 1: B1 heavy with K558D, K588E
heavy 2: QVQLVQSGAEVKKPGASVKVSCKASGDTFTRYYVHWVRQAPGQGLEWMGIINPSGGYASYAQKFQGRVTMTRDTSTSTVYMELSSLRSEDTAVYYCAAGLFIWGQGTLVTVSSAKTTAPSVYPLAPVCGDTTGSSVTLGCLVKGYFPEPVTLTWNSGSLSSGVHTFPAVLQSDLYTLSSSVTVTSSTWPSQSITCNVAHPASSTKVDKKIEPRGPTIKPCPPCKCPAPNAAGGPSVFIFPPKIKDVLMISLSPIVTCVVVDVSEDDPDVQISWFVNNVEVHTAQTQTHREDYNSTLRVVSALPIQHQDWMSGKEFKCKVNNKDLGAPIERTISKPKGSVRAPQVYVLPPPEKEMTKKQVSLTCLVKDFMPEDIYVEWTNNGKTELNYKNTEPVLKSDGSYFMYSKLTVEKKNWVERNSYSCSVVHEGLHNHHTTKSFSRTPGGGGSGGGSHHHHHH
light: B1 light with S93R
notes: also called AF3947
B3: AF003740 (other)
heavy 1: B1 heavy with K558D, K588E
heavy 2: QVQLVQSGAEVKKPGASVKVSCKASGDTFTRYYVHWVRQAPGQGLEWMGIINPSGGYASYAQKFQGRVTMTRDTSTSTVYMELSSLRSEDTAVYYCAAGLFIWGQGTLVTVSSAKTTAPSVYPLAPVCGDTTGSSVTLGCLVKGYFPEPVTLTWNSGSLSSGVHTFPAVLQSDLYTLSSSVTVTSSTWPSQSITCNVAHPASSTKVDKKIEPRGPTIKPCPPCKCPAPNAAGGPSVFIFPPKIKDVLMISLSPIVTCVVVDVSEDDPDVQISWFVNNVEVHTAQTQTHREDYNSTLRVVSALPIQHQDWMSGKEFKCKVNNKDLGAPIERTISKPKGSVRAPQVYVLPPPEKEMTKKQVSLTCLVKDFMPEDIYVEWTNNGKTELNYKNTEPVLKSDGSYFMYSKLTVEKKNWVERNSYSCSVVHEGLHNHHTTKSFSRTPGK
light: B1 light with E92N
notes: also called AF3740
B4: AF003934 (other)
heavy: APASSSTKKTQLQLEHLLLDLQMILNGINNYKNPKLTRMLTAKFAMPKKATELKHLQCLEEELKPLEEVLNGAQSKNFHLRPRDLISNINVIVLELKGSETTFMCEYADETATIVEFLNRWITFAQSIISTLTGGGGSGGGGSGGGGSGGGGSQVQLVQSGAEVKKPGASVKVSCKASGYTFTRYYMHWVRQAPGQGLEWMGIINPRAGYTSYALKFQGRVTMTRDTSTSTVYMELSSLRSEDTAVYYCTSGWDVWGQGTLVTVSSAKTTAPSVYPLAPVCGDTTGSSVTLGCLVKGYFPEPVTLTWNSGSLSSGVHTFPAVLQSDLYTLSSSVTVTSSTWPSQSITCNVAHPASSTKVDKKIEPRGPTIKPCPPCKCPAPNAAGGPSVFIFPPKIKDVLMISLSPIVTCVVVDVSEDDPDVQISWFVNNVEVHTAQTQTHREDYNSTLRVVSALPIQHQDWMSGKEFKCKVNNKDLGAPIERTISKPKGSVRAPQVYVLPPPEEEMTKKQVTLTCMVTDFMPEDIYVEWTNNGKTELNYKNTEPVLDSDGSYFMYSKLRVEKKNWVERNSYSCSVVHEGLHNHHTTKSFSRTPGK
light: B1 light with G30S, R31T, S50A, N53S, E55D, T56S, Y91S, E92Y, P100Q, D105E
notes: also called AF3934
B5: AF003945 (other)
heavy 1: B1 heavy with K558D, K588E
heavy 2: B2 heavy 2
light: B1 light with R31S, E92N
notes: also called AF3945
B6: AF003753 (other)
heavy 1: B1 heavy with K558D, K588E
heavy 2: B3 heavy 2
light: B1 light
notes: also called AF3753
B7: AF003644 (other)
heavy: B1 heavy
light: B1 light with E92N
notes: also called AF3644
B8: AF003749 (other)
heavy 1: B1 heavy with K558D, K588E
heavy 2: B3 heavy 2
light: B1 light with W32Y, S50Y, E92N
notes: also called AF3749
B9: AF003232 (other)
heavy 1: B1 heavy with Y185H, K558D, K588E
heavy 2: B2 heavy 2 with Y32H
light: B1 light
notes: also called AF3232
B10: AF003747 (other)
heavy 1: B1 heavy with K558D, K588E
heavy 2: B3 heavy 2
light: B1 light with W32Y, E92N
notes: also called AF3747
B11: AF003651 (other)
heavy: B1 heavy
light: B1 light with W32Y, E92N
notes: also called AF3651
B12: AF003247 (other)
heavy: B1 heavy with Y185H
light: B1 light
notes: also called AF3247

Numbering of substitutions follows the chain as printed.

The assay has as its target T1, biotinylated IL-2 receptor beta gamma …. Put plainly: ELISA, captured complex, biotin-IL-2RBG 10 nM, PD-1 Fc titrated. On the procedure: The DBA-cytokine complexes and control antibody-cytokine complexes were produced in two formats: (1) “Symmetric” immunocytokine (shown in FIG. 2E); or (2) “Asymmetric” immunocytokine (shown in FIG. 2B) by expression in mammalian cells and purified using standard protocols. […] To perform the assay, 384-well ELISA plates were coated with anti-Fc antibody at 1 micrograms/ml in 100 mM bicarbonate solution pH 9.0 overnight at 4° C. and washed twice with SUPERBLOCK™. Antibody-cytokine complexes were then added to each well at a constant concentration of 6 nM and allowed to incubate for 1 hour and washed three times in PBS plus 0.05% TWEEN® 20 (PBST). Titrated concentrations of PD-1 Fc or an IgG1 control Fc were added and allowed to incubate for 15 minutes before the addition of a constant amount of biotinylated IL-2RBG at 10 nM. The plates were incubated for an additional 30 minutes, washed and biotinylated IL-2RBG detection was performed using streptavidin-HRP and standard ELISA protocols.
For orientation: An ELISA detects its analyte on a solid surface through an enzyme-linked reagent.
For the molecule B1, the binding result is given as “binds”.

Turning to B2, the binding result is reported as “binds”.

In the case of B3, the binding result is “binds”.

With B4, the binding result is “binds”.

As for B5, the binding result is “binds”.

Regarding B6, the binding result was “binds”.

Turning to B7, the binding result is “binds”.

In the case of B8, the binding result was “binds”.

On to B9, for which the binding result is listed as “binds”.

With B10, the binding result is “binds”.

Regarding B11, the binding result was “binds”.

Consider B12, for which the binding result is “binds”.

The values above are taken from patent publication US20240366776A1 (Hoffmann-La Roche, published 2024).
